Laboratory results as given in IntAct's records for PubMed 12692135.

B1: Tumor protein 63 (Homo sapiens), Q9H3D4 (parent)
chain: MNFETSRCATLQYCPDPYIQRFVETPAHFSWKESYYRSTMSQSTQTNEFLSPEVFQHIWDFLEQPICSVQPIDLNFVDEPSEDGATNKIEISMDCIRMQDSDLSDPMWPQYTNLGLLNSMDQQIQNGSSSTSPYNTDHAQNSVTAPSPYAQPSSTFDALSPSPAIPSNTDYPGPHSFDVSFQQSSTAKSATWTYSTELKKLYCQIAKTCPIQIKVMTPPPQGAVIRAMPVYKKAEHVTEVVKRCPNHELSREFNEGQIAPPSHLIRVEGNSHAQYVEDPITGRQSVLVPYEPPQVGTEFTTVLYNFMCNSSCVGGMNRRPILIIVTLETRDGQVLGRRCFEARICACPGRDRKADEDSIRKQQVSDSTKNGDGTKRPFRQNTHGIQMTSIKKRRSPDDELLYLPVRGRETYEMLLKIKESLELMQYLPQHTIETYRQQQQQQHQHLLQKQTSIQSPSSYGNSSPPLNKMNSMNKLPSVSQLINPQQRNALTPTTIPDGMGANIPMMGTHMPMAGDMNGLSPTQALPPPLSMPSTSHCTPPPPYPTDCSIVSFLARLGCSSCLDYFTTQGLTTIYQIEHYSMDDLASLKIPEQFRHAIWKGILDHRQLHEFSSPSHLLRTPSSASTVSVGSSETRGERVIDAVRFTLRQTISFPPRDEWNDFNFDMDARRNKQQRIKEEGE
B2: Tumor protein 63 (Homo sapiens), Q9H3D4 (parent)
chain: B1 chain
partner: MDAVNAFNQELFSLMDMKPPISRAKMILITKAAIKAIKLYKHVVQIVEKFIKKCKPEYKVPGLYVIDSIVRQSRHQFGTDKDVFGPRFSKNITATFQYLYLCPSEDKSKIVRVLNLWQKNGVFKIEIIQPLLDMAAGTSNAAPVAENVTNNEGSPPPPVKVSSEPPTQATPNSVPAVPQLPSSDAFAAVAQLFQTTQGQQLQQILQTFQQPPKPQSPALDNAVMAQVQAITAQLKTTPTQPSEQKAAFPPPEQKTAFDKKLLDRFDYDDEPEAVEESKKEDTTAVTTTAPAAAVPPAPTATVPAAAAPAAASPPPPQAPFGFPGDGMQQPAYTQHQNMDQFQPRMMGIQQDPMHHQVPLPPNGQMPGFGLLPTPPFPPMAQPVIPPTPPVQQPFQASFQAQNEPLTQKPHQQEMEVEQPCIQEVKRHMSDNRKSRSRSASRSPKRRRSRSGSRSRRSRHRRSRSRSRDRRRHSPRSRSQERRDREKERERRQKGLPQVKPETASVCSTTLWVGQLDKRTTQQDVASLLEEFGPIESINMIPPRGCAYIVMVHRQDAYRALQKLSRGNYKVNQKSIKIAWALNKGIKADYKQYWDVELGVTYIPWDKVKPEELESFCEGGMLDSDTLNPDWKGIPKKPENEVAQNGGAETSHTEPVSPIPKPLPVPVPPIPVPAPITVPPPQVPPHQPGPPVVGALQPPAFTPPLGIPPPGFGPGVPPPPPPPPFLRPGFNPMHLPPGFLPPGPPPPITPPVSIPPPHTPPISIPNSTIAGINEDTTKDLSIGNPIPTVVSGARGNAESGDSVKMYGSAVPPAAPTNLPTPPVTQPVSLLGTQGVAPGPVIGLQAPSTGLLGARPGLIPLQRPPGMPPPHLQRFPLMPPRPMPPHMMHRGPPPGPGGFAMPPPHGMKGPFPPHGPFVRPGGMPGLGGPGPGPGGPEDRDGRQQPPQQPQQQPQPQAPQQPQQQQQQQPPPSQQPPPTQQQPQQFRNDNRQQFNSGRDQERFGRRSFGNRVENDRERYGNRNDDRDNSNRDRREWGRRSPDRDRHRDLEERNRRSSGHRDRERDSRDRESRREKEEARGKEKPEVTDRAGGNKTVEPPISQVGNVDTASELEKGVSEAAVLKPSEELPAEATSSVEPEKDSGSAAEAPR
B3: Tumor protein 63 (Homo sapiens), Q9H3D4-2 (parent)
chain: MLYLENNAQTQFSEPQYTNLGLLNSMDQQIQNGSSSTSPYNTDHAQNSVTAPSPYAQPSSTFDALSPSPAIPSNTDYPGPHSFDVSFQQSSTAKSATWTYSTELKKLYCQIAKTCPIQIKVMTPPPQGAVIRAMPVYKKAEHVTEVVKRCPNHELSREFNEGQIAPPSHLIRVEGNSHAQYVEDPITGRQSVLVPYEPPQVGTEFTTVLYNFMCNSSCVGGMNRRPILIIVTLETRDGQVLGRRCFEARICACPGRDRKADEDSIRKQQVSDSTKNGDGTKRPFRQNTHGIQMTSIKKRRSPDDELLYLPVRGRETYEMLLKIKESLELMQYLPQHTIETYRQQQQQQHQHLLQKQTSIQSPSSYGNSSPPLNKMNSMNKLPSVSQLINPQQRNALTPTTIPDGMGANIPMMGTHMPMAGDMNGLSPTQALPPPLSMPSTSHCTPPPPYPTDCSIVSFLARLGCSSCLDYFTTQGLTTIYQIEHYSMDDLASLKIPEQFRHAIWKGILDHRQLHEFSSPSHLLRTPSSASTVSVGSSETRGERVIDAVRFTLRQTISFPPRDEWNDFNFDMDARRNKQQRIKEEGE

Variants of: B1
Conditions: with rack1_human RACK1, P63244

Variant | effect of a mutation on the interaction
L553F | with no effect

Variants of: B1
Conditions: with roaa_human HNRNPAB
Target sequence in this assay (Q99729 whole entry): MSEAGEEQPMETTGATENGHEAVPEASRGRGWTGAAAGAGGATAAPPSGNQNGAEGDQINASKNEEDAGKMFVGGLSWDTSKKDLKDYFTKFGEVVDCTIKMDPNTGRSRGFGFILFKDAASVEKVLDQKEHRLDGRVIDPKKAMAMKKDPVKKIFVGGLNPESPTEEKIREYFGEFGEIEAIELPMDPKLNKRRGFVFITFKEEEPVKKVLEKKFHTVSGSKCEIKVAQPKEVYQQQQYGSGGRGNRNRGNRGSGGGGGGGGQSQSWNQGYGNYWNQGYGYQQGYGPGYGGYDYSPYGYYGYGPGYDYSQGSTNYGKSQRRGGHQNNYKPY

Variant | effect of a mutation on the interaction
L553F | disrupting interaction strength

Variants of: B1
Conditions: with roaa_human HNRNPAB
Remark: another data set of the same source
Target sequence in this assay (Q99729 whole entry): as above

Variant | effect of a mutation on the interaction
L553F | disrupting interaction strength
C561V | disrupting interaction strength
G569V | disrupting interaction strength
Q575L | disrupting interaction strength
I576T | disrupting interaction strength

Variants of: B2
Conditions: with scaf4_human SCAF4, O95104

Variant | effect of a mutation on the interaction
L553F | disrupting interaction strength

Variants of: B3
Conditions: with roaa_human HNRNPAB
Target sequence in this assay (Q99729 whole entry): as above

Variant | effect of a mutation on the interaction
MLYLENNAQTQFSEPQYTNLGLLNSMDQQIQNGSSSTSPYNTDHAQNSVTAPSPYAQPSSTFDALSPSPAIPSNTDYPGPHSFDVSFQQSSTAKSATWTYSTELKKLYCQIAKTCPIQIKVMTPPPQGAVIRAMPVYKKAEHVTEVVKRCPNHELSREFNEGQIAPPSHLIRVEGNSHAQYVEDPITGRQSVLVPYEPPQVGTEFTTVLYNFMCNSSCVGGMNRRPILIIVTLETRDGQVLGRRCFEARICACPGRDRKADEDSIRKQQVSDSTKNGDGTKRPFRQNTHGIQMTSIKKRRSPDDELLYLPVRGRETYEMLLKIKESLELMQYLPQHTIETYRQQQQQQHQHLLQKQTSIQSPSSYGNSSPPLNKMNSMNKLPSVSQLINPQQRNALTPTTIPDGMGANIPMMGTHMPMAGDMNGLSPTQALPPPLSMPSTSHCTPPPPYPTDCSIVSFFARLGCSSCLDYFTTQGLTTIYQIEHYSMDDLASLKIPEQFRHAIWKGILDHRQLHEFSSPSHLLRTPSSASTVSVGSSETRGERVIDAVRFTLRQTISFPPRDEWNDFNFDMDARRNKQQRIKEEGE [L459F] | disrupting interaction strength

Variants of: B3
Conditions: with roaa_human HNRNPAB
Remark: another data set of the same source
Target sequence in this assay (Q99729 whole entry): as the sequence (Q99729 whole entry) above

Variant | effect of a mutation on the interaction
MLYLENNAQTQFSEPQYTNLGLLNSMDQQIQNGSSSTSPYNTDHAQNSVTAPSPYAQPSSTFDALSPSPAIPSNTDYPGPHSFDVSFQQSSTAKSATWTYSTELKKLYCQIAKTCPIQIKVMTPPPQGAVIRAMPVYKKAEHVTEVVKRCPNHELSREFNEGQIAPPSHLIRVEGNSHAQYVEDPITGRQSVLVPYEPPQVGTEFTTVLYNFMCNSSCVGGMNRRPILIIVTLETRDGQVLGRRCFEARICACPGRDRKADEDSIRKQQVSDSTKNGDGTKRPFRQNTHGIQMTSIKKRRSPDDELLYLPVRGRETYEMLLKIKESLELMQYLPQHTIETYRQQQQQQHQHLLQKQTSIQSPSSYGNSSPPLNKMNSMNKLPSVSQLINPQQRNALTPTTIPDGMGANIPMMGTHMPMAGDMNGLSPTQALPPPLSMPSTSHCTPPPPYPTDCSIVSFLARLGCSSVLDYFTTQGLTTIYQIEHYSMDDLASLKIPEQFRHAIWKGILDHRQLHEFSSPSHLLRTPSSASTVSVGSSETRGERVIDAVRFTLRQTISFPPRDEWNDFNFDMDARRNKQQRIKEEGE [C467V] | disrupting interaction strength
MLYLENNAQTQFSEPQYTNLGLLNSMDQQIQNGSSSTSPYNTDHAQNSVTAPSPYAQPSSTFDALSPSPAIPSNTDYPGPHSFDVSFQQSSTAKSATWTYSTELKKLYCQIAKTCPIQIKVMTPPPQGAVIRAMPVYKKAEHVTEVVKRCPNHELSREFNEGQIAPPSHLIRVEGNSHAQYVEDPITGRQSVLVPYEPPQVGTEFTTVLYNFMCNSSCVGGMNRRPILIIVTLETRDGQVLGRRCFEARICACPGRDRKADEDSIRKQQVSDSTKNGDGTKRPFRQNTHGIQMTSIKKRRSPDDELLYLPVRGRETYEMLLKIKESLELMQYLPQHTIETYRQQQQQQHQHLLQKQTSIQSPSSYGNSSPPLNKMNSMNKLPSVSQLINPQQRNALTPTTIPDGMGANIPMMGTHMPMAGDMNGLSPTQALPPPLSMPSTSHCTPPPPYPTDCSIVSFLARLGCSSCLDYFTTQVLTTIYQIEHYSMDDLASLKIPEQFRHAIWKGILDHRQLHEFSSPSHLLRTPSSASTVSVGSSETRGERVIDAVRFTLRQTISFPPRDEWNDFNFDMDARRNKQQRIKEEGE [G475V] | disrupting interaction strength
MLYLENNAQTQFSEPQYTNLGLLNSMDQQIQNGSSSTSPYNTDHAQNSVTAPSPYAQPSSTFDALSPSPAIPSNTDYPGPHSFDVSFQQSSTAKSATWTYSTELKKLYCQIAKTCPIQIKVMTPPPQGAVIRAMPVYKKAEHVTEVVKRCPNHELSREFNEGQIAPPSHLIRVEGNSHAQYVEDPITGRQSVLVPYEPPQVGTEFTTVLYNFMCNSSCVGGMNRRPILIIVTLETRDGQVLGRRCFEARICACPGRDRKADEDSIRKQQVSDSTKNGDGTKRPFRQNTHGIQMTSIKKRRSPDDELLYLPVRGRETYEMLLKIKESLELMQYLPQHTIETYRQQQQQQHQHLLQKQTSIQSPSSYGNSSPPLNKMNSMNKLPSVSQLINPQQRNALTPTTIPDGMGANIPMMGTHMPMAGDMNGLSPTQALPPPLSMPSTSHCTPPPPYPTDCSIVSFLARLGCSSCLDYFTTQGLTTIYLIEHYSMDDLASLKIPEQFRHAIWKGILDHRQLHEFSSPSHLLRTPSSASTVSVGSSETRGERVIDAVRFTLRQTISFPPRDEWNDFNFDMDARRNKQQRIKEEGE [Q481L] | disrupting interaction strength
MLYLENNAQTQFSEPQYTNLGLLNSMDQQIQNGSSSTSPYNTDHAQNSVTAPSPYAQPSSTFDALSPSPAIPSNTDYPGPHSFDVSFQQSSTAKSATWTYSTELKKLYCQIAKTCPIQIKVMTPPPQGAVIRAMPVYKKAEHVTEVVKRCPNHELSREFNEGQIAPPSHLIRVEGNSHAQYVEDPITGRQSVLVPYEPPQVGTEFTTVLYNFMCNSSCVGGMNRRPILIIVTLETRDGQVLGRRCFEARICACPGRDRKADEDSIRKQQVSDSTKNGDGTKRPFRQNTHGIQMTSIKKRRSPDDELLYLPVRGRETYEMLLKIKESLELMQYLPQHTIETYRQQQQQQHQHLLQKQTSIQSPSSYGNSSPPLNKMNSMNKLPSVSQLINPQQRNALTPTTIPDGMGANIPMMGTHMPMAGDMNGLSPTQALPPPLSMPSTSHCTPPPPYPTDCSIVSFLARLGCSSCLDYFTTQGLTTIYQTEHYSMDDLASLKIPEQFRHAIWKGILDHRQLHEFSSPSHLLRTPSSASTVSVGSSETRGERVIDAVRFTLRQTISFPPRDEWNDFNFDMDARRNKQQRIKEEGE [I482T] | disrupting interaction strength
